# Test results published in the supplement of paper PMC12042874.
# ± gives the uncertainty stated by the source.
# Assay: amyloid nucleation score (Sup35N fusion, yeast selection) (log enrichment); library NNK3; higher = more nucleation; inactive = no reads after selection
# Procedure, shortened: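 Nucleation score is defined as the DiMSum log enrichment of output over input reads, with centring on the mode score of non-aggregating sequences. A minimum of 100 input reads was required for each sequence. Reads came from Illumina sequencing of plasmid inserts from psi-negative yeast expressing Sup35N fused to peptides of 20 random codons, induced with 100 μM copper sulfate for 24 hours and grown 7 days at 30°C on medium lacking adenine and uracil.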
row,Substance,amyloid nucleation score
1,FSTFRLSRLCHRDRRSHARQ,inactive
2,WFVNL,1.38 ± 0.15
3,SSFAGVFNFRDGTQSQILYV,inactive
4,YEMIKFSKY,inactive
5,FLLCHYCFFVDTPGRIFYYS,0.724 ± 0.18
6,CGYEVIGNIFGM,inactive
7,MSDEDRYNRWFDTGVGVLDR,inactive
8,CSCQMSRFMRTLVCVFT,inactive
9,GGKLKRCVYG,inactive
10,PSNYWNEFYFCSSIHSCGE,3.28 ± 0.07
11,RHVFFLC,inactive
12,STVELWQELFAFNTRGGSNG,inactive
13,NLQERAL,-0.438 ± 0.88
14,ISVNALYNLMHKCNYNAKLR,inactive
15,FFKICFRAKYIGNLSPLLK,inactive
16,RAICGMNFCNISHLT,3.05 ± 0.067
17,DISSKY,inactive
18,YVITQQSSFSVTLYSSINFC,0.625 ± 0.33
19,GTDWCTRHMPGIDPCDSVVC,-0.557 ± 1
20,GYSKNI,inactive
21,ACTIMWSSLKSIT,inactive
22,FTQCNEAGCWHESDTNFMQC,0.109 ± 0.75
23,LTICAFVVYVFIYKYKMGVM,inactive
24,SIGELPT,inactive
25,VTGLCSDTHRVSYEFRLPRK,inactive

row,Substance,amyloid nucleation score
1,MCLYQGESRYGSYLYFTDIN,inactive
2,SAGTLGGYDFVYVAVDSLHR,inactive
3,ILVTASTAYLDVRVKWIQTF,inactive
4,FLPQFDYVQIMVPCYCLEVV,inactive
5,SLDLNCQIMLYKSMRCDEE,1.61 ± 0.064
6,DFYIIDSLIRMCMRICEFVL,inactive
7,AIFRS,inactive
8,DAETPLHSFGMQLLGRASMR,inactive
9,GCFYIFRIY,-0.222 ± 1.3
10,SDYGSFLEFH,-0.27 ± 0.79
11,IVFEMLPWPVG,-0.435 ± 1.9
12,KGEDPPHCSTEIPCMSRQLL,inactive
13,IPVGIRSRFVLYSCGMTGVK,inactive
14,SLFYHTGRS,0.459 ± 0.15
15,LWIDLWFILYWPGSIDCGEC,-0.288 ± 0.45
16,HIFFFSPKSVVHVIASRGCL,1.59 ± 0.081
17,YICVKYEVYNFTFYFVSGFW,inactive
18,SVDCYCTKKTYMQWSGSVRH,0.66 ± 0.23
19,CCHSITFLVNLGMRERKNKV,inactive
20,KLCDCVMLLFTLDTRIGNVL,0.053 ± 0.7
21,ECTDFYGTGTFCFGSWRLSY,1.76 ± 0.064
22,LCSGVHHFVRNTIVKGVCDG,inactive
23,MLIRYAVLALCSCGTNFTDL,inactive
24,PSLRRTSLGSLKSSMANSWQ,inactive
25,RGSMRPPSVSQMQCRYKDRF,-0.663 ± 1.1

row,Substance,amyloid nucleation score
1,SADITSTLGRYAFYF,inactive
2,EQYRSTTGLESL,-0.2 ± 0.96
3,SGFVSWN,inactive
4,PNWEWIVYKMLGTFVHSWVM,inactive
5,ISLLYVFMLNR,2.11 ± 0.078
6,LRQSTSMPCNFCIYLEERKD,1.43 ± 0.073
7,YLPSSSEFR,inactive
8,HDLAETCGSSPI,inactive
9,VDNCYDVITSLILSKYVLTL,inactive
10,EICWKLIGRMRC,inactive
11,CFCVDADIIRTLMVCDIILS,1.12 ± 0.099
12,EAVKWPHMILPHCTHMWIYW,inactive
13,LSLVQGR,inactive
14,DLGFWPYFISIMACCWDQKG,1.15 ± 0.12
15,KYGWVLFYGCYYCGHGWTNL,inactive
16,KYYFRGWKTEPVTWFGCQAM,0.488 ± 0.2
17,VINSR,inactive
18,LVVRLIDF,inactive
19,VYDMCGNLQWAL,inactive
20,VVSLRQLRW,inactive
21,RIVIPMVWEYIFSDFVFG,1.72 ± 0.088
22,DCFDFIEETGTNKAFRVWGI,0.283 ± 0.24
23,LINAGTKFMQDTRSCWMHSS,inactive
24,CSRYFRWYHVLAYCSVPNRM,inactive
25,RNKSSNFREHPVTSRITCRS,inactive

row,Substance,amyloid nucleation score
1,RKSGYYLIVMRALNREPTPV,-0.363 ± 1.4
2,QRISMIALDRFD,inactive
3,FSVPLVCDIYCLYTDVEYRH,2.53 ± 0.059
4,RSPTVL,inactive
5,GMERFNGFKRVFMDSGCLHR,-0.707 ± 0.96
6,WYRLLYKVEYNFKGWSVFVR,inactive
7,QWFAWARQWL,inactive
8,KISISD,inactive
9,ACSDFSE,inactive
10,WLVPR,inactive
11,YFAWNRKVNYTRS,inactive
12,NLGLRGPLLAMKCMIACYVQ,inactive
13,HKTLFIFS,inactive
14,NCSYIDQR,0.483 ± 0.14
15,CLTLMALAKGFGVWGG,-0.176 ± 0.92
16,VRNYGLDFRRACGWT,inactive
17,VISFDVWSNRMCFLMGMIWH,inactive
18,VWLFVSSMEYTNGTYQHHMM,inactive
19,RSCSLWVY,inactive
20,LFFRLHYS,inactive
21,SVSFFAF,inactive
22,CAMTLRTFFQPPPITTSKYC,inactive
23,TAFNHRMPGDLWRDDGGARV,0.784 ± 0.24
24,MRYSFRCF,inactive
25,KYYTSRNRWRYMV,-0.291 ± 0.68

row,Substance,amyloid nucleation score
1,TSAMSYFGDIYWCRKFRRVG,inactive
2,HGVNT,inactive
3,QYCDSMTLINQPAAIRGLLW,inactive
4,SHWYIYSYSVDPCAGHAAVW,inactive
5,NFGHMY,inactive
6,KCMFMEDCPLPEWSDLEVGL,inactive
7,KLVVNSKPYMNYVSVDEIIM,inactive
8,QPLHCK,inactive
9,VYKIMVTFPSISMPSRSSGL,inactive
10,RSDENWRMTYWRAGCRVLDV,inactive
11,DGCGFIVTFVSAGVRSWLGI,0.712 ± 0.29
12,GYILVLYADRAKICDKFYVG,2.27 ± 0.05
13,LMAFNPMYSSQKYGTNYSFM,inactive
14,LAQSQNVVEARINSPWWDSP,inactive
15,NRFQLVSRYAWHSWVK,inactive
16,RIINCDKLSQTTALYIKTFM,inactive
17,RSLSRNFSLCMGGSDRSGGL,inactive
18,FRKETNSSHGLMKWAKEQ,inactive
19,NLSWKGNAQDCLMGSVL,inactive
20,TCSKPGSSSMHSAVGKTMSA,inactive
21,RFSWNENVGVDGQHLPEVER,inactive
